From patent US20190091332A1 (published 2019)
Substitutions are numbered along the chain they refer to. In names and notes the source's numbering stands. Values belong to the binder of their own block, whether it stands above or below them.

Legend:
human LAG3-huFc [1] = target: T1, human LAG3-huFc (human, UniProt P18627 23-450, limits assumed); assay: flow cytometry competition: antibody pre-incubated with human LAG3-huFc, its binding to Daudi cells (MHC class II) read
T1 construct: also called human LAG3-Fc; huLAG3-huFc; not shown: human Fc (huFc)
T1 sequence: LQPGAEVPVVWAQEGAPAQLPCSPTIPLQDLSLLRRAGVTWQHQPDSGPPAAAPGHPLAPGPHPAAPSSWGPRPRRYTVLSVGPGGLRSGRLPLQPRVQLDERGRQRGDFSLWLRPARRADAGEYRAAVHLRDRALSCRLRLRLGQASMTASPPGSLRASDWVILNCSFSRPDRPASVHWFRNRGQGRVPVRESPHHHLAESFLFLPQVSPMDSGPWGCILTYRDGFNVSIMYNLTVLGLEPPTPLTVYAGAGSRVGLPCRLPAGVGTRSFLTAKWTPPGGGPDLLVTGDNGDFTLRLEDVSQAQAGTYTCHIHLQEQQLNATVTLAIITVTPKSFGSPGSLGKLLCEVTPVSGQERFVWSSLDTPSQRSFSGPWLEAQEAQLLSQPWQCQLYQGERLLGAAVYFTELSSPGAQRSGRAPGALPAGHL
Protocol: (§1) Mouse anti-human LAG3 clones were tested for their ability to block hLAG3 interaction with human MHC Class II. Daudi cells (ATCC #CCL-213) were used as a cell line positive for human MHC class II expression. Daudi cells were blocked with 10 ug/ml of goat IgG in HBSS and 2% BCS on ice for 30 minutes and 0.5×10⁶ cells/sample were aliquoted into a 96-well V-bottom plate and blocking buffer removed. […] Cells were pelleted by centrifugation at 1200 rpm and washed twice with HBSS/2% BCS. […] Cells were washed twice as described above, resuspended in HBSS/2% BCS and read on the FACSCalibur.

human LAG3-huFc [2] = target: T1, human LAG3-huFc; assay: as above; remark: listed apart in the source
Protocol: as §1

human LAG3-huFc [3] = target: T1, human LAG3-huFc; assay: flow cytometry competition: antibody pre-incubated with biotinylated human LAG3-huFc, its binding to Daudi cells (MHC class II) read with streptavidin-PE
Protocol: as §1, with “anti-human LAG3 and humanized anti-LAG3 clones were” for “anti-human LAG3 clones were”

- IC50 (human LAG3-huFc [1]): 2.8 nM
- IC50 (human LAG3-huFc [2]): 2.8 nM
B1: LB148.19E8.G1.1A1 (antibody, V domains shown)
VH: QIRLQQSGPELVKPGASVKISCKASGSSFTDYYINWVKQKPGQGLEWIGWIYPGSGNSIYNENFKAKATLTVDTSSSTAYMHLSSLTSEDTAVYFCAREADYDDALDYWGQGTSVTVSS
VL: HILLTQSPAILSVSPGERVSFSCRASQSIGTSIHWYQQRTNGSPRLLIKYASESISGIPSRFSGSGSGTDFTLSINSVESEDIADYYCQQSNSWPTYTFGGGTKLEIK
notes: also called Lag3 clone 19E8

- IC50 (human LAG3-huFc [1]): 2.1 nM
- IC50 (human LAG3-huFc [2]): 2.1 nM
B2: LB145.22D2.E1.1D1 (antibody, V domains shown)
VH: EVLLLQSGPELVKPGTSVKIPCKASGYTFTDYNVDWVKQRHGKGLEWIGDINPNNGGTIYSQKFKGKATLTVDKSSSTAFMELRSLTSEDTAVYFCARNYRWFGAMDHWGQGTSVTVSS
VL: DIVLTQSPASLAVSPGQRATISCKASQSLDYEGDSDMNWYQQKPGQPPRLLISGASNLESGIPARFSGSGSGTDFTVNIHPVEEEDAATYYCQQSTEDPRTFGGGTKLEIK
notes: also called mouse anti-human LAG3 clone 22D2; Lag3 clone 22D2

- IC50 (human LAG3-huFc [3]): 2.5 nM
B3: 22D2 Chimera ([LAG3_H] mAb (LB145.22D2.E1.D1 (VH0/VL0) Geneart) IgG4 S228P/kappa (PX)) (antibody, V domains shown)
VH: B2 VH
VL: B2 VL
notes: Chimeric antibody: 22D2 VH0/VL0 variable domains on human IgG4 S228P/kappa; also called Chimeric 22D2; Anti-hLAG3 clone 22D2 (chimeric antibody)

- IC50 (human LAG3-huFc [3]): 2.6 nM
B4: Hu22D2 VH6/VL3 (Ab 5) (antibody, human IgG4 S228P, kappa, V domains shown)
VH: QMQLVQSGPEVKKPGTSVKVSCKASGYTFTDYNVDWVRQARGQRLEWIGDINPNNGGTIYAQKFQERVTITVDKSTSTAYMELSSLRSEDTAVYYCARNYRWFGAMDHWGQGTTVTVSS
VL: DIVMTQTPLSLSVTPGQPASISCKASQSLDYEGDSDMNWYLQKPGQPPQLLIYGASNLESGVPDRFSGSGSGTDFTLKISRVEAEDVGVYYCQQSTEDPRTFGGGTKVEIKR
notes: Humanized 22D2, IgG4 S228P/kappa; also called 45AGX light chain / 57AHH heavy chain IgG4 S228P

- IC50 (human LAG3-huFc [3]): 2.5 nM
B5: Hu22D2 VH6/VL3 N55Q (Ab 8) (antibody, human IgG4 S228P, kappa, V domains shown)
VH: B4 VH with N55Q
VL: B4 VL
notes: Humanized 22D2, IgG4 S228P/kappa; also called 45AGX light chain / 80AHG heavy chain IgG4 S228P

- IC50 (human LAG3-huFc [3]): 2.4 nM
B6: Hu22D2 VH6/VL3 N55D (Ab 6) (antibody, human IgG4 S228P, kappa, V domains shown)
VH: B4 VH with N55D
VL: B4 VL
notes: Humanized 22D2, IgG4 S228P/kappa; also called Hu2D2; 45AGX light chain / 73AHD heavy chain IgG4 S228P

- IC50 (human LAG3-huFc [3]): 2.1 nM
B7: Hu22D2 VH6/VL3 N55S (Ab 7) (antibody, human IgG4 S228P, kappa, V domains shown)
VH: B4 VH with N55S
VL: B4 VL
notes: Humanized 22D2, IgG4 S228P/kappa; also called 45AGX light chain / 21AHG heavy chain IgG4 S228P

- IC50 (human LAG3-huFc [1]): 2 nM
- IC50 (human LAG3-huFc [2]): 2 nM
B8: LB148.11C9.1C1 (antibody, V domains shown)
VH: QVQLQQPGAELVMPGASAKMSCKASGYTLTDYWMHWVKQRPGQGLEWIGAIDISDSYSSYNQKFKGKATLTVDESSSTAYMQLTSLTSEDSAVYYCARSPFYNSRGGNYFDYWGQGTTLTVSS
VL: DIQMTQTTSSLSASLGDRVTISCRASQDISNYLNWYQQKPDGTVKLLIYYTSRLHSGVPSRFSGSGSGTDYSLTISNLEQEDIATYFCQQGDTLPPWTFGGGTKLEIK
notes: also called Lag3 clone 11C9; mouse x [LAG3_H] mAb (LB148.11C9.1C1) IgG1/kappa (HY)

- IC50 (human LAG3-huFc [1]): 1.9 nM
- IC50 (human LAG3-huFc [2]): 1.9 nM
B9: LB148.4A10.1H1 (antibody, V domains shown)
VH: EVQLLQSGAELVRSGASVKLSCTASGFNIEDYYMHWMKQRPEQGLEWIGWIDPVNGDTEYAPKFQGKATMTADTSSNTAYLHLNSLTSEDTAVYYCNFYDGYLFAFWGQGTLVTVSA
VL: DIVLTQAAPSVPVTPGESVSISCRSSKSLLHSDGNTYLYWLLQRPGQSPQLLIYRMSNLASGVPDRFSGSGSGTVFTLRISRLEAEDVGIYYCMQHLEYPFTFGGGTKLEIK
notes: also called Lag3 clone 4A10; mouse x [LAG3_H] mAb (LB148.4A10.1H1) IgG2a/kappa (HY)
